Target: FLAG-tagged KSHV ORF33 (Kaposi sarcoma-associated herpesvirus (KSHV))
Experiment: not given
Settings: not given

Sequence of FLAG-tagged KSHV ORF33 (Kaposi sarcoma-associated herpesvirus (KSHV)) (F5HEF2 whole entry): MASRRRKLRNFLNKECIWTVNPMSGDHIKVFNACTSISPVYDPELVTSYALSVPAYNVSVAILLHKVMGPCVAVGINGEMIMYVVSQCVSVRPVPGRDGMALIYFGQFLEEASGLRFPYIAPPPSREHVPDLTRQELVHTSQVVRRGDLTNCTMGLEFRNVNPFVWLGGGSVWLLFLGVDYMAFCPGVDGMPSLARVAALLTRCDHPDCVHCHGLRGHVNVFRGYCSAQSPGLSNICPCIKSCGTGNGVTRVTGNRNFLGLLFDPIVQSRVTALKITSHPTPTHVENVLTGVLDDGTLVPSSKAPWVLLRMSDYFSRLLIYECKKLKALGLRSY

**Q.** How did the yield of extracellular KSHV genomes (qPCR) from induced iSLK.BAC16 cells treated with the peptide, up to 200 uM, 5 days; the peptide blocks ORF45-ORF33 turn out when “TAT-C19 peptide (from UniProt F5HDE4 389-407)” was run?
**A.** Its yield of extracellular KSHV genomes (qPCR) from induced iSLK.BAC16 cells treated with the peptide, up to 200 uM, 5 days; the peptide blocks ORF45-ORF33 is 34.1 µM.

Target: FLAG-tagged KSHV ORF33
Experiment: ELISA
Settings: parent: est. 0.68; read off a plot

**Q.** With “GST-tagged KSHV ORF45-C19 (from UniProt F5HDE4) C396A” as the substance, how does the response read?
**A.** The response was 0.058 Absorbance.

**Q.** How did the response turn out when “GST-tagged KSHV ORF45-C19 (from UniProt F5HDE4) D407A” was run?
**A.** Its response is 0.69 Absorbance.

**Q.** Which response does the source give for “GST-tagged KSHV ORF45-C19 (from UniProt F5HDE4) G397A” here?
**A.** Its response is 0.19 Absorbance.

**Q.** With “GST-tagged KSHV ORF45-C19 (from UniProt F5HDE4) L395A” as the substance, how does the response read?
**A.** Its response is 0.21 Absorbance.

**Q.** “GST-tagged KSHV ORF45-C19 (from UniProt F5HDE4) L406A” was tested. Which response did it give?
**A.** Its response is 0.44 Absorbance.

**Q.** For “GST-tagged KSHV ORF45-C19 (from UniProt F5HDE4) N402A”, which response is on record?
**A.** The response was 0.69 Absorbance.

**Q.** With “GST-tagged KSHV ORF45-C19 (from UniProt F5HDE4) P393A” as the substance, how does the response read?
**A.** The response was 0.42 Absorbance.

**Q.** How did the response turn out when “GST-tagged KSHV ORF45-C19 (from UniProt F5HDE4) P394A” was run?
**A.** Its response is 0.058 Absorbance.

**Q.** For “GST-tagged KSHV ORF45-C19 (from UniProt F5HDE4) P404A”, which response is on record?
**A.** The response was 0.09 Absorbance.

**Q.** “GST-tagged KSHV ORF45-C19 (from UniProt F5HDE4) T392A” was tested. Which response did it give?
**A.** The response was 0.085 Absorbance.

**Q.** “GST-tagged KSHV ORF45-C19 (from UniProt F5HDE4) W403A” was tested. Which response did it give?
**A.** The response was 0.07 Absorbance.

**Q.** “GST-tagged KSHV ORF45-C19 (from UniProt F5HDE4) W405A” was tested. Which response did it give?
**A.** The response was 0.058 Absorbance.

**Q.** How did the response turn out when “GST-tagged KSHV ORF45-C19 (from UniProt F5HDE4) Y401A” was run?
**A.** The response was 0.058 Absorbance.
